This is an account of results in patent US20230105667A1, “MESENCHYMAL STROMAL CELLS AND EXTRACELLULAR VESICLES FOR TREATING VIRAL INFECTIONS, INFLAMMATION, AND TISSUE FIBROSIS” (EXOSTEM BIOTEC LTD., priority 2020, published 2023).

The target in the assay is human ACE2 on cells (human lung epithelial cells expressing ACE2 (human) (UniProt Q9BYF1)). Briefly: cell-based or functional assay.
Sequence of UniProt Q9BYF1 (Q9BYF1 18-805 limits assumed): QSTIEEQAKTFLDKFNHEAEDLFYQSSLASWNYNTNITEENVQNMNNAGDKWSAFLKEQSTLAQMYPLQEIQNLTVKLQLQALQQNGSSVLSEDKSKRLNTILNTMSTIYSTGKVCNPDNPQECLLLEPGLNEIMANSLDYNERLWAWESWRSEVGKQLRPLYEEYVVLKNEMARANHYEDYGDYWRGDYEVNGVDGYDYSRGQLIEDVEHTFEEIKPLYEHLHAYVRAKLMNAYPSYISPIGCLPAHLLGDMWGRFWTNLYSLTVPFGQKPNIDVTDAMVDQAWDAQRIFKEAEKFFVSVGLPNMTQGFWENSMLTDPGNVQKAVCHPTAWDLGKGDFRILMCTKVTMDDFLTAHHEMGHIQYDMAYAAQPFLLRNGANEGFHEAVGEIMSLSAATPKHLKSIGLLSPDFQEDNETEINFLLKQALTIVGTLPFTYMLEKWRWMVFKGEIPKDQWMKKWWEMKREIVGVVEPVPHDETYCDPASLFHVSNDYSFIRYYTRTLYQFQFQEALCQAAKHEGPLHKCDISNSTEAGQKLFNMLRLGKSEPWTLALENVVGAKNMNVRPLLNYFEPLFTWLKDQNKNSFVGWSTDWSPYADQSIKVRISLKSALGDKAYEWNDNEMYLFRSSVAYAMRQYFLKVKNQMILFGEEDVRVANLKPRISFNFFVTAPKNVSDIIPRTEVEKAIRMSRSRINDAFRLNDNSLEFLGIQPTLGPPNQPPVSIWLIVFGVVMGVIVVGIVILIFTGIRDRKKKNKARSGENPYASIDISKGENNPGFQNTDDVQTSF

For “SARS-CoV-2 receptor-binding-domain (RBD) displayed on extracellular vesicles from MSCs (ligand)”, the TNFα levels in HBE cells treated with RBD recombinant protein came to 50%.
